The record followed here is US20250145729A1 (DENALI THERAPEUTICS, published 2025).

The target in assay [1] is T1, circularly permuted human TfR apical domain (human).
T1 construct: TfR residues 326-379 stand N-terminal to 194-296, loop 297-325 deleted; also called huTfR Apical Domain
T1 chain: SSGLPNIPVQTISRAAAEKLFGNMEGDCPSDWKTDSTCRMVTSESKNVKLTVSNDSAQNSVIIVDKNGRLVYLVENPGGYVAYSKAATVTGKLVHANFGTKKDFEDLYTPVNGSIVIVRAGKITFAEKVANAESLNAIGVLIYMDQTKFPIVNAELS
Nature of the assay: SPR, supernatant, anti-Fab capture. On the procedure:
(§1) Clones were expressed in HEK293 cells. Supernatants were captured for SPR by GE Healthcare anti-human Fab capture kit and the affinity to human and cyno TfR apical domain was measured (Table 30). The clones in Table 30 were bivalent and each TfR-binding Fc polypeptide also contained P329G and LALA mutations.

The target in assay [2] is T2, circularly permuted cyno TfR apical domain (cynomolgus monkey).
T2 construct: same design as the human construct; also called cyTfR Apical Domain; cynomolgus TfR apical domain
T2 chain: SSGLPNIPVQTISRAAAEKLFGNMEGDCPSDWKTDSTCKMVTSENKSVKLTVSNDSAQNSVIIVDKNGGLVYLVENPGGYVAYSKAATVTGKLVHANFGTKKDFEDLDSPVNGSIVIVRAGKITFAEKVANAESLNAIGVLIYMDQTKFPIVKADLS
Kind of assay: SPR, supernatant, anti-Fab capture. How it is done: as §1

B1: 42.8.207 (Fc fusion)
chain: APEAAGGPSVFLFPPKPKDTLMISRTPEVTCVVVDVSHEDPEVKFNWYVDGVEVHNAKTKPREEQYNSTYRVVSVLTVLHQDWLNGKEYKCKVSNKALGAPIEKTISKAKGQPREPQVYTLPPSRDELTKNQVSLTCLVKGFYPSDIAVEWFYEDQKESNYKTTPPVLDSDGSFFLYSKLTVDKSRWQQGNLFACEVMHEALHNHYTYKLLSLSPGK
notes: bivalent; P329G+LALA
As for B1, the Kd was 1.2 µM in assay [1] and 13.8 µM in assay [2].

B2: 42.8.188 (Fc fusion)
chain: APEAAGGPSVFLFPPKPKDTLMISRTPEVTCVVVDVSHEDPEVKFNWYVDGVEVHNAKTKPREEQYNSTYRVVSVLTVLHQDWLNGKEYKCKVSNKALGAPIEKTISKAKGQPREPQVYTLPPSRDELTKNQVSLTCLVKGFYPSDIAVEWFYEGSKETNYKTTPPVLDSDGSFFLYSKLTVDKSRWQQGNLFACEVMHEALHNHYTYKLLSLSPGK
notes: bivalent; P329G+LALA
For the molecule B2, the Kd in assay [1] turned out to be 1.03 µM; in assay [2], 12.5 µM.

B3: 42.8.212 (Fc fusion)
chain: APEAAGGPSVFLFPPKPKDTLMISRTPEVTCVVVDVSHEDPEVKFNWYVDGVEVHNAKTKPREEQYNSTYRVVSVLTVLHQDWLNGKEYKCKVSNKALGAPIEKTISKAKGQPREPQVYTLPPSRDELTKNQVSLTCLVKGFYPSDIAVEWFYEDSKETNYKTTPPVLDSDGSFFLYSKLTVDKSRWQQGNLFACEVMHEALHNHYTYKLLSLSPGK
notes: bivalent; P329G+LALA
With B3, the dissociation constant Kd came to 0.62 µM in assay [1] and 9.37 µM in assay [2].

B4: 42.8.78 (Fc fusion)
chain: APEAAGGPSVFLFPPKPKDTLMISRTPEVTCVVVDVSHEDPEVKFNWYVDGVEVHNAKTKPREEQYNSTYRVVSVLTVLHQDWLNGKEYKCKVSNKALGAPIEKTISKAKGQPREPQVYTLPPSRDELTKNQVSLTCLVKGFYPSDIAVEWFSEGQKLSNYKTTPPVLDSDGSFFLYSKLTVDKSRWQQGNLFACEVMHEALHNHYTYKLLSLSPGK
notes: bivalent; P329G+LALA
Regarding B4, the Kd came out at 0.972 µM in assay [1] and 6.74 µM in assay [2].

B5: 42.2 (Fc fusion)
chain: APEAAGGPSVFLFPPKPKDTLMISRTPEVTCVVVDVSHEDPEVKFNWYVDGVEVHNAKTKPREEQYNSTYRVVSVLTVLHQDWLNGKEYKCKVSNKALGAPIEKTISKAKGQPREPQVYTLPPSRDELTKNQVSLTCLVKGFYPSDIAVEWFSDGSKETNYKTTPPVLDSDGSFFLYSKLTVDKSRWQQGNLFACEVMHEALHNHYTYKLLSLSPGK
notes: bivalent; P329G+LALA; also called 6.5.11.5.42.2
For B5, the Kd was found to be 1 µM in assay [1] and 7.5 µM in assay [2].

B6: 42.8.208 (Fc fusion)
chain: APEAAGGPSVFLFPPKPKDTLMISRTPEVTCVVVDVSHEDPEVKFNWYVDGVEVHNAKTKPREEQYNSTYRVVSVLTVLHQDWLNGKEYKCKVSNKALGAPIEKTISKAKGQPREPQVYTLPPSRDELTKNQVSLTCLVKGFYPSDIAVEWFYEDQKLNNYKTTPPVLDSDGSFFLYSKLTVDKSRWQQGNLFACEVMHEALHNHYTYKLLSLSPGK
notes: bivalent; P329G+LALA
B6: the Kd in assay [1] is 0.446 µM; in assay [2] it was 7.41 µM.

B7: 42.8.72 (Fc fusion)
chain: APEAAGGPSVFLFPPKPKDTLMISRTPEVTCVVVDVSHEDPEVKFNWYVDGVEVHNAKTKPREEQYNSTYRVVSVLTVLHQDWLNGKEYKCKVSNKALGAPIEKTISKAKGQPREPQVYTLPPSRDELTKNQVSLTCLVKGFYPSDIAVEWFSDDSKLSNYKTTPPVLDSDGSFFLYSKLTVDKSRWQQGNLFACEVMHEALHNHYTYKLLSLSPGK
notes: bivalent; P329G+LALA
Turning to B7, the results for the dissociation constant Kd in assay [1] and in assay [2] were 2.71 µM and 13.4 µM, respectively.

B8: 42.2.1-20 (Fc fusion)
chain: APEAAGGPSVFLFPPKPKDTLMISRTPEVTCVVVDVSHEDPEVKFNWYVDGVEVHNAKTKPREEQYNSTYRVVSVLTVLHQDWLNGKEYKCKVSNKALGAPIEKTISKAKGQPREPQVYTLPPSRDELTKNQVSLTCLVKGFYPSDIAVEWFADASKQRNYKTTPPVLDSDGSFFLYSKLTVDKSRWQQGNLFACEVMHEALHNHYTYKLLSLSPGK
notes: P329G+LALA
On to B8, for which the Kd in assay [1] amounted to 0.44 µM; in assay [2], 7 µM.

B9: 42.8.79 (Fc fusion)
chain: APEAAGGPSVFLFPPKPKDTLMISRTPEVTCVVVDVSHEDPEVKFNWYVDGVEVHNAKTKPREEQYNSTYRVVSVLTVLHQDWLNGKEYKCKVSNKALGAPIEKTISKAKGQPREPQVYTLPPSRDELTKNQVSLTCLVKGFYPSDIAVEWFSEGSKENNYKTTPPVLDSDGSFFLYSKLTVDKSRWQQGNLFACEVMHEALHNHYTYKLLSLSPGK
notes: bivalent; P329G+LALA
As for B9, the Kd came out at 3.07 µM in assay [1] and 28.6 µM in assay [2].

B10: 42.8.65 (Fc fusion)
chain: APEAAGGPSVFLFPPKPKDTLMISRTPEVTCVVVDVSHEDPEVKFNWYVDGVEVHNAKTKPREEQYNSTYRVVSVLTVLHQDWLNGKEYKCKVSNKALGAPIEKTISKAKGQPREPQVYTLPPSRDELTKNQVSLTCLVKGFYPSDIAVEWFSDDQKLTNYKTTPPVLDSDGSFFLYSKLTVDKSRWQQGNLFACEVMHEALHNHYTYKLLSLSPGK
notes: bivalent; P329G+LALA
As to B10, the Kd in assay [1] stood at 3.94 µM; in assay [2] it was 10.3 µM.

B11: 42.8.210 (Fc fusion)
chain: APEAAGGPSVFLFPPKPKDTLMISRTPEVTCVVVDVSHEDPEVKFNWYVDGVEVHNAKTKPREEQYNSTYRVVSVLTVLHQDWLNGKEYKCKVSNKALGAPIEKTISKAKGQPREPQVYTLPPSRDELTKNQVSLTCLVKGFYPSDIAVEWFYEDQKLSNYKTTPPVLDSDGSFFLYSKLTVDKSRWQQGNLFACEVMHEALHNHYTYKLLSLSPGK
notes: bivalent; P329G+LALA
B11: the values for the Kd in assay [1] and in assay [2] were 0.596 µM and 7.88 µM, respectively.

B12: 42.8.80 (Fc fusion)
chain: APEAAGGPSVFLFPPKPKDTLMISRTPEVTCVVVDVSHEDPEVKFNWYVDGVEVHNAKTKPREEQYNSTYRVVSVLTVLHQDWLNGKEYKCKVSNKALGAPIEKTISKAKGQPREPQVYTLPPSRDELTKNQVSLTCLVKGFYPSDIAVEWFSEGSKETNYKTTPPVLDSDGSFFLYSKLTVDKSRWQQGNLFACEVMHEALHNHYTYKLLSLSPGK
notes: bivalent; P329G+LALA
Regarding B12, the dissociation constant (Kd) in assay [1] is 2.38 µM; in assay [2], 13.6 µM.

B13: 42.8.213 (Fc fusion)
chain: APEAAGGPSVFLFPPKPKDTLMISRTPEVTCVVVDVSHEDPEVKFNWYVDGVEVHNAKTKPREEQYNSTYRVVSVLTVLHQDWLNGKEYKCKVSNKALGAPIEKTISKAKGQPREPQVYTLPPSRDELTKNQVSLTCLVKGFYPSDIAVEWFYEDSKESNYKTTPPVLDSDGSFFLYSKLTVDKSRWQQGNLFACEVMHEALHNHYTYKLLSLSPGK
notes: bivalent; P329G+LALA
As to B13, the Kd in assay [1] turned out to be 0.872 µM; in assay [2], 9.79 µM.

B14: 42.8.216 (Fc fusion)
chain: APEAAGGPSVFLFPPKPKDTLMISRTPEVTCVVVDVSHEDPEVKFNWYVDGVEVHNAKTKPREEQYNSTYRVVSVLTVLHQDWLNGKEYKCKVSNKALGAPIEKTISKAKGQPREPQVYTLPPSRDELTKNQVSLTCLVKGFYPSDIAVEWFYEDSKLSNYKTTPPVLDSDGSFFLYSKLTVDKSRWQQGNLFACEVMHEALHNHYTYKLLSLSPGK
notes: bivalent; P329G+LALA
In the case of B14, the Kd was determined as 0.421 µM in assay [1] and 5.85 µM in assay [2].

B15: 42.2.19 (Fc fusion)
chain: APEAAGGPSVFLFPPKPKDTLMISRTPEVTCVVVDVSHEDPEVKFNWYVDGVEVHNAKTKPREEQYNSTYRVVSVLTVLHQDWLNGKEYKCKVSNKALGAPIEKTISKAKGQPREPQVYTLPPSRDELTKNQVSLTCLVKGFYPSDIAVEWFYDDSKLTNYKTTPPVLDSDGSFFLYSKLTVDKSRWQPRGLFACEVMHEALHNHYTYKLLGESPGK
notes: P329G+LALA
With B15, the Kd stood at 0.08 µM in assay [1] and 1 µM in assay [2].

B16: 42.8.15 (Fc fusion)
chain: APEAAGGPSVFLFPPKPKDTLMISRTPEVTCVVVDVSHEDPEVKFNWYVDGVEVHNAKTKPREEQYNSTYRVVSVLTVLHQDWLNGKEYKCKVSNKALGAPIEKTISKAKGQPREPQVYTLPPSRDELTKNQVSLTCLVKGFYPSDIAVEWFSGAQKESNYKTTPPVLDSDGSFFLYSKLTVDKSRWQQGNLFACEVMHEALHNHYTYKLLSLSPGK
notes: bivalent; P329G+LALA
B16: the Kd in assay [1] was determined as 5.96 µM; in assay [2] it was 27 µM.

B17: 42.8.9 (Fc fusion)
chain: APEAAGGPSVFLFPPKPKDTLMISRTPEVTCVVVDVSHEDPEVKFNWYVDGVEVHNAKTKPREEQYNSTYRVVSVLTVLHQDWLNGKEYKCKVSNKALGAPIEKTISKAKGQPREPQVYTLPPSRDELTKNQVSLTCLVKGFYPSDIAVEWFSGGSKESNYKTTPPVLDSDGSFFLYSKLTVDKSRWQQGNLFACEVMHEALHNHYTYKLLSLSPGK
notes: bivalent; P329G+LALA
B17: the Kd was determined as 1.85 µM in assay [1] and 14.3 µM in assay [2].

B18: 42.2.3-5 (Fc fusion)
chain: APEAAGGPSVFLFPPKPKDTLMISRTPEVTCVVVDVSHEDPEVKFNWYVDGVEVHNAKTKPREEQYNSTYRVVSVLTVLHQDWLNGKEYKCKVSNKALGAPIEKTISKAKGQPREPQVYTLPPSRDELTKNQVSLTCLVKGFYPSDIAVEWFYGNGKETNYKTTPPVLDSDGSFFLYSKLTVDKSRWQQGNLFACEVMHEALHNHYTYKLLSLSPGK
notes: P329G+LALA
For B18, the Kd was 0.26 µM in assay [1] and 1.8 µM in assay [2].

B19: 42.8.10 (Fc fusion)
chain: APEAAGGPSVFLFPPKPKDTLMISRTPEVTCVVVDVSHEDPEVKFNWYVDGVEVHNAKTKPREEQYNSTYRVVSVLTVLHQDWLNGKEYKCKVSNKALGAPIEKTISKAKGQPREPQVYTLPPSRDELTKNQVSLTCLVKGFYPSDIAVEWFSGGSKLNNYKTTPPVLDSDGSFFLYSKLTVDKSRWQQGNLFACEVMHEALHNHYTYKLLSLSPGK
notes: bivalent; P329G+LALA
As to B19, the figures for the Kd in assay [1] and in assay [2] were 3.76 µM and 11.1 µM, respectively.
